The text below walks through data of the DeepSol protein solubility set.

This data set is described as follows: soluble on expression in E. coli; label from the status in PepcDB or PDB records.
As for “SGPLRDKVVIFIYWRENDLSIYLDLSGEPISRHGYRLNPWKAPMAETLAAGVIITSEWNPTTPFINPMCGSGTLAIEAALIGTHKIPGLVREDYAFQHIHGYVAETWKTMREMAQQKVLPALPFKIIASDHDQRALDAAKVNAEKAGVDHLIDFVLSDFQDTPVEENQAGVVILNPEYGERLGDEESLVLTYKEIGDFFKQKCGGYKGFVFTGNLELAKRIGLKPKRKIKFFSAKIECRLMQYELYSGTKRVVFKTE”, the “soluble on expression in E. coli” value is “not soluble”. In the case of “GSDSLIRDLSGLSQKMVQTLLEQIRSNYDDYLTFSNTYTDEENETLINLEKTQSDLQKFMTQLDHLIKDDISNTQEIIKDVLEYLKKLDEIYGSLRNHSQLTEALSLGKRLSKSLHEMCGIEPLEEEICSGLIEQLYKLITASRRILESCADSNSPYIHHLRNDYQDLLQEFQISLKILTEKCLENPSSLQNLSLTLVSIIKTA”, the “soluble on expression in E. coli” value is recorded as “soluble”. Consider “MALMYPFHVAQPPLNWSEHLWVSEVSPAKESFITTICEHRQAQWDNQDLLRHLQDSVAILTREDQRHVNAVHAAANMPANP”, for which the “soluble on expression in E. coli” value is “not soluble”. As to “MGSSHHHHHHSSGLVPRGSHMKAIALISGGKDSFLSAYIAMQQGFDIVRAMIVRPQEYSYMFHFPNVDKAGYVAGMLGIEPEFVLEDGFQQRVKEYASDGVKAIVSGAIASEFQKTRLERIATEFSIISYTPLWKVDQHRVMRDILDAGIRAMIVSVSAEGFSENDLGREIDDKYLERLYHLEKRYGINITGEGGEYETFVFGFGNKYISVKGHRIWKGSGGYFNIDSVEERPDSC”, the “soluble on expression in E. coli” value is listed as “soluble”. As for “MGSDKIHHHHHHMERNEIEQLVAHGIFPYDQQAKTRLIETAISYILLKGSYAYKIKKNIKLSFLDFSTLEKRRHFCYEELRLNQRLAKDMYINVFAVSKKGKQWSISTGPAKAKEYVILMKGMNPDHQLNALLKKNRITKKPIRQLAQQLADFHQNEKSLSLTYDPFFLSREFADIEKFSSTIEKKLGVDYYKLVQTCIQLSNHFVLLQQEFISKRPCLGYFKNCHGDLHSQNIFIEKKPVIFDCIEFREAFRHIDVLNEIAFLCMDLETYGYADLSKIFLTDYIKKTGYAFGKKEQLLFTYFKAYRSCIRAKVHTIEMSQHPSSTQIKEKVKKYIEGMAGYMIEIAGKF”, the “soluble on expression in E. coli” value was “not soluble”. In the case of “RHMASIEKVANCIRCLAADIVQGGKSGHPGTPMGMAPMSAVLWTEVMKYNSQDPDWVDRDRFVMSNGHGCALQYALLHMAGYNLTMDDLKGFRQDGSRTPGHPERFVTPGVEVTTGPLGQGIANAVGLAIAEAHLAATFNRPGYNIVDHYTYVYCGDGCLMEGVCQEALSLAGHLALEKLIVIYDSNYISIDGSTSLSFTEQCHQKYVAMGFHVIEVKNGDTDYEGLRKALAEAKATKGKPKMIVQTTTIGFGSSKQGTEKVHGAPLGEEDIANIKAKFGRDPQKKYDVDDDVRAVFRMHIDKCSAEQKAWEELLAKYTAAFPAEGAAFVAQMRGELPSGWEAKLPTNSSAIATRKASENCLAVLFPAIPALMGGSADLTPSNLTRPASANLVDFSSSSKEGRYIRFGVREHAMCAILNGLDAHDGIIPFGGTFLNFIGYALGAVRLAAISHHRVIYVATHDSIGVGEDGPTHQPVELVAALRAMPNLQVIRPSDQTETSGAWAVALSSIHTPTVLCLSRQNTEPQSGSSIEGVRHGAYSVVDVPDLQLVIVASGSEVSLAVDAAKALSGELRVRVVSMPCQELFDAQPDTYRQAVLPAGVPVVSVEAYVSFGWEKYSHAHVGMSGFGASAPAGVLYKKFGITVEEVVRTGRELAKRFPDGTAPLKNSSFSKM”, the “soluble on expression in E. coli” value is reported as “soluble”. Next, “MAHHHHHHMFRDGYSLDSVCHRLRYEIGVPHDGVYLHEPPGGSFAAVTQFGVAVGVTREQLPHASRHYNVHALIFDDRGYHALDELPRLSVAPQAYLHRILLRCVSGDEAAVAQRLRHLSSNGFINYFGLESFGIGSNTLFDMAAFAFRREPHRSVGAYLQTLAECSPLHHQPYLSYANAEESTVAGAVAEWLRVCERAKLPRETRELLRKLHCYHLSQCHPSDATTISMEDVWKACPIMHRAEQSAAAFVWNAMASQRLLSFGSRPVKGDLVCRIGNRGAIEIAEVASDTDASHYTIDDVVLPIPCGGTPAAELRYPTHSVNEAFFTQFAKKHSLSFLFNSGVDPTPRAAATLGPYRRLVSRPRNLQAAVLQDPSSCAALKSDLFLLQEHQPTEGWSLDYRQRVREPSNFNVSERFRERMSCIRKRRAGEHSVALAFVLPAGSSPWVALREAFHMHYGTFHDFYGVS”: “not soluble”; “MSNGQLVSQVTVGHDKPLDREKVCPMLLRVFVANNRHNPMSEYNSRNGGSVPPSELQMHTWMDCSLRELTSLIKEVNPDARRKGTTFDFAIVQADRGSPRYILRDVGNTTNGERGIDDNKTLQQCKFEVGDFVDVAISLPSQGRRFNNREQGDRFDHRQRQRSPIR”: “not soluble”.
